These results are taken from US6451312.

For assay [1], the target named is human endoglin (human) (UniProt P17813). Briefly: FACS, corrected fluorescence intensity grade, L-endoglin transfectant.
Assay [2] shares this target. Briefly: competition FACS on HUVEC; unlabelled TEC-4 against biotinylated TEC-11 (competitor), ratio 1:100.
The target is the same in assay [3]. The assay can be described thus: FACS on HUVEC, half-maximal fluorescence.
The target is the same in assay [4]. The assay can be described thus: FACS, corrected fluorescence intensity grade, HT-1080 and SAOS-2.
Assay [5] has the same target. Briefly: indirect immunofluorescence FACS on HUVEC, 10 µg/ml.
Assay [6] shares this target. The assay can be described thus: FACS, corrected fluorescence intensity grade, HUVEC.
The target is the same in assay [7]. Briefly: competition FACS on HUVEC; unlabelled TEC-4 against biotinylated TEC-11 (competitor), ratio 1:1.
Assay [8] shares this target. The assay can be described thus: FACS, corrected fluorescence intensity grade, MDA-MB-231 and SKBR3.
Assay [9] shares this target. Briefly: FACS, corrected fluorescence intensity grade, U937.
For assay [10] the target is unchanged. Briefly: cell-based or functional assay.
The target is the same in assay [11]. Briefly: FACS, corrected fluorescence intensity grade, A375M and T8.
Assay [12] has the same target. The assay can be described thus: FACS, corrected fluorescence intensity grade, ECV-304.
Assay [13] has the same target. Briefly: FACS, 20 µg/ml TEC-11, sorted Endoglin^lo fraction of postconfluent HUVEC; SD in parentheses.
The target is the same in assay [14]. Briefly: competition FACS on HUVEC; unlabelled TEC-11 against biotinylated TEC-4 (competitor), ratio 1:1.
Assay [15] shares this target. Briefly: FACS, 20 µg/ml TEC-11, sorted Endoglin^hi fraction of postconfluent HUVEC; SD in parentheses.

Regarding “TEC-4 (tumor endothelial cell antibody 4)”, the corrected fluorescence intensity (CFI) was 50 to 100 cfi in the assay with human endoglin (human) [1]; 5 to 25 cfi with human endoglin (human) [4]; above 100 cfi in the assay with human endoglin (human) [6]; 5 to 25 cfi with human endoglin (human) [8]; 5 to 25 cfi with human endoglin (human) [9]; 5 to 25 cfi with human endoglin (human) [11]. In the assay with human endoglin (human) [12], this substance showed a corrected fluorescence intensity (CFI) of 25 to 50 cfi. For the same substance, the percent blocking of biotinylated TEC-11 with human endoglin (human) [2] was determined as 20%; in the assay with human endoglin (human) [7], 1%. In the assay with human endoglin (human) [3], this substance displayed an EC50 of 4 µg/mL. In addition, in the assay with human endoglin (human) [5], the specific mean fluorescence intensity (MFI) turned out to be 200. The substance further showed a complement-mediated lysis of HUVEC (guinea pig complement, trypan blue) with human endoglin (human) [10] of 48%.

Take “TEC-11 (tumor endothelial cell antibody 11)”: the corrected fluorescence intensity (CFI) is 50 to 100 cfi in the assay with human endoglin (human) [1]; 5 to 25 cfi with human endoglin (human) [4]; above 100 cfi with human endoglin (human) [6]; 5 to 25 cfi with human endoglin (human) [8]; 5 to 25 cfi in the assay with human endoglin (human) [9]; 5 to 25 cfi with human endoglin (human) [11]. The substance also came in with a corrected fluorescence intensity (CFI) with human endoglin (human) [12] of 25 to 50 cfi. Further, the EC50 in the assay with human endoglin (human) [3] worked out at 0.4 µg/mL. Besides, the MFI with human endoglin (human) [13] was determined as 61.6; with human endoglin (human) [15], 270. Besides, the percent blocking of biotinylated TEC-4 with human endoglin (human) [14] is 51%. For the same substance, in the assay with human endoglin (human) [5], the specific mean fluorescence intensity (MFI) amounted to 200. Moreover, the complement fixation relative to TEC-4 with human endoglin (human) [10] amounted to 100 fold. In the assay with human endoglin (human) [10], this substance displayed a complement-mediated lysis of HUVEC (guinea pig complement, trypan blue) above 50%.
